B1: OR4K15 (parent)
chain: GUUAACGGUCAUAGGCCAUGGAAACUAGGAGCACCAUUUCGCUGCCAGUGAAGAAAUGAACAAAGAAAAUCUGGGCCAGGCAGGCAUCAAAAGAAAUAGUCUUGCGCUCAACCAGAAAGUCUGUAAUCAUUUUAAGGGUA

Variants of: B1
Experiment: self-cleavage, relative activity (ratio to wild type); higher = more cleavage; in vitro, sequencing; the parent is a self-cleaving ribozyme

Row | Variant | self-cleavage
1 | U12G A13G | 1.09
2 | U12A U26C | 2.17
3 | G14A G20A | 1.49
4 | A11U A64G | 1.56
5 | A11G U102A | 0.58
6 | A11U A125G | 1.3
7 | A11G U97G | 0.34
8 | U12C A23U | 0.97
9 | A13G G93U | 0.86
10 | U12A U37C | 1.96
11 | A13G G20A | 0.94
12 | A13G A129G | 0.85
13 | U12A U130C | 1.21
14 | U12C A95G | 1.57
15 | U12C U38C | 1.73
16 | U12C U38G | 1.22
17 | U12G A27C | 1
18 | U12A A116G | 0.49
19 | U12C U57G | 1.33
20 | U12A A59U | 0.95
21 | A13G A111G | 0.15

Row | Variant | self-cleavage
22 | A11G U37C | 1.16
23 | U12A A55G | 1.3
24 | U12A A55U | 2.25
25 | A11U G15A | 1.97
26 | G14A A18G | 1.29
27 | G14A A86G | 1.02
28 | G14A A66G | 0.8
29 | G14A A69G | 1.03
30 | A13G A135C | 0.49
31 | U12G A24G | 1.1
32 | U12C U120C | 0.75
33 | A11G U131G | 1.52
34 | A11U A24G | 1.7
35 | A13U | 1.11
36 | A13G | 0.79
37 | A13C | 1.33
38 | A13G A78G | 0.52
39 | G14A U124C | 0.47
40 | U12C A86G | 0.8
41 | A13U C105U | 0.23
42 | G14A C40A | 1.54

Row | Variant | self-cleavage
43 | A11G U108C | 0.01
44 | A13G U103C | 0.75
45 | U12C A129G | 0.89
46 | A13G U37A | 0.82
47 | A13C U120C | 1.78
48 | A11G U57C | 0.63
49 | U12C A89C | 1.09
50 | A13G A91G | 0.9
51 | A13G A91U | 0.92
52 | A13G A91C | 1.81
53 | U12A A22C | 1.51
54 | A11G U72C | 0.21
55 | U12A U102C | 1.73
56 | A13U U38C | 0.61
57 | A11G U127C | 0.63
58 | A11U A36U | 0.78
59 | U12C A111G | 0.03
60 | A13U A110G | 0.08
61 | A13U A110U | 1.26
62 | A13U A117G | 2.05
63 | A13U A59G | 0.41

Row | Variant | self-cleavage
64 | U12A A135G | 1.47
65 | U12A A135U | 1.29
66 | U12C A90G | 0.97
67 | U12A U72A | 0.36
68 | A11U A68G | 0.99
69 | A11U A13U | 1.5
70 | U12A U131C | 2.37
71 | G14A A33U | 1.16
72 | G14A U19A | 0.91
73 | A11U U37C | 1.01
74 | A13U A33C | 2.21
75 | U12G U37C | 1.48
76 | A13C U139C | 1.48
77 | A13G U87A | 0.92
78 | U12C A135C | 0.84
79 | U12C A135G | 1.25
80 | A13C A51U | 1.65
81 | U12C A30U | 1.21
82 | U12C A30G | 1.28
83 | U12C A126U | 0.52
84 | U12C A126C | 0.42
